The values below come from US7960513B2, “Antibody against a human ADAM protease” (Monash University, priority 2004, dated 2011).

Where a chain is given by its changes, count along the chain named.

In test [1] the target is T1, EphA3 (wild type, expressed in cells) (UniProt P29320 21-983, limits assumed).
T1 construct: whole, on cells; also called wt EphA3; w/t EphA3
T1 sequence (looked up): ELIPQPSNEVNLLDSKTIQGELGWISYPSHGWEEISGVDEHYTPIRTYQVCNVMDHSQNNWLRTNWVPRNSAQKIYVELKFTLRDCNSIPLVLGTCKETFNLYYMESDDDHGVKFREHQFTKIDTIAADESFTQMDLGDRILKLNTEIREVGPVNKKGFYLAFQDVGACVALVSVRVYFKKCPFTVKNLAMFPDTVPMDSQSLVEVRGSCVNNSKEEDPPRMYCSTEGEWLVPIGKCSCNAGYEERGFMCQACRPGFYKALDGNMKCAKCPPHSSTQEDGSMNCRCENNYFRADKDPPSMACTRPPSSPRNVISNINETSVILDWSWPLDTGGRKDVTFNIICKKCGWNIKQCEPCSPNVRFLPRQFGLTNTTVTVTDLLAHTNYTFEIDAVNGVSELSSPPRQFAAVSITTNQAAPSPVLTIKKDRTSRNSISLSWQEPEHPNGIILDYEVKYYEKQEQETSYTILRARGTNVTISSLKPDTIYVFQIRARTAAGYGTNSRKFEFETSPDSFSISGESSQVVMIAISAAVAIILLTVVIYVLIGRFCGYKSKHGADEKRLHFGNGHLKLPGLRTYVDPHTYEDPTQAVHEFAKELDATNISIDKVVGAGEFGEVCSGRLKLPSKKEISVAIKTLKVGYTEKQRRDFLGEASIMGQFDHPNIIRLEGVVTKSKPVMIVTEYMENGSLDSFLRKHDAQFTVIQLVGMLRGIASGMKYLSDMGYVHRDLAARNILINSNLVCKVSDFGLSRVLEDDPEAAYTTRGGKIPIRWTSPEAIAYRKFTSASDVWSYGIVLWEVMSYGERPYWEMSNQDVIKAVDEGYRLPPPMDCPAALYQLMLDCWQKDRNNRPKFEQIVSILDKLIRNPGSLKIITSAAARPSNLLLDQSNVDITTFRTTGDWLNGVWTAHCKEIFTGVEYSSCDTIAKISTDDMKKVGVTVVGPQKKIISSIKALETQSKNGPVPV
The test can be described thus: anti-EphA3 immunoprecipitation, anti-ADAM10 Western blot. How it is done: Cells were cultured in DME/10% FCS and transfected with Lipofectamine 2000 (Invitrogen), and in some experiments treated with the metalloprotease inhibitors 1,10-O-Phenanthroline (OPN, 4h, 1 mM; Mumm et al., 2000, Mol. Cell. 5 197-206) and TAPI1 (1h, 50 µM; Yan et al., 2002, J Cell Biol. 158 221-6). HEK293 cells were transfected with EphA3 (Wicks et al., 1992, Proc. Natl. Acad. Sci. USA 89 1611-1615) or ephrin-A5 (Winslow et al., 1995, Neuron 14 973-81; Lackmann et al., 1996, Proc. Natl. Acad. Sci. USA 93 2523-2527) in pEfBos vectors containing puromycin or gentamycin resistance genes, respectively and stable EphA3/HEK293 or ephrin-A5/HEK293 clones derived accordingly. Serum-starved cells were stimulated (10 min) with 1.5 ug/ml pre-clustered ephrinA5-Fc and harvested, as described previously. Immunoprecipitation was with anti-EphA3 mAb IIIA4 (Boyd et al., 1992, J Biol. Chem. 267 3262-3267. or anti-HA mAb 3F10 (Roche) conjugated to beads, and Western blotting was performed using anti-ADAM10 (Biogenesis, UK), anti-ephrinA5 (R&D Systems) and anti-ephA3 (Lackmann et al., 1997, supra) antibodies.
Initially, we investigated whether ADAM10 interacts with either EphA3 or ephrin-A5 on the cell surface and how these interactions are affected upon Eph/ephrin complex formation. […]
In general terms: In western blotting, separated proteins are transferred to a membrane and probed.

Test [2] has as its system EphA3-expressing 293 cells. Kind of test: Ephrin-A5-Fc cleavage in EphA3/293 cells overexpressing ADAM10 constructs (Western blot of recovered ephrin). It counts as cell-based, human. The note with it: overexpression of ADAM10 construct; clustered ephrin-A5-Fc. How it is done: (§1) FIG. 4. Mutation of acidic residues in the ADAM10 Cys-rich domain affects binding to EphA3/ephrin-A5 and cleavage of ephrin-A5. • A. In vitro binding of mutant ADAM10D+C to EphA3/ephrin-A5. ADAM10D+C[EEE-A] containing Alanine substitutions of Glu573, Glu578, Glu579 (lanes 1-4) or ADAM10D+C[RDD-A] (Ala substitutions of Arg525, Asp526, Asp527, lanes 5-8) were incubated alone (lanes 1, 5), or together with EphA3-Fc (lanes 2, 6), ephrin-A5-Fc (lanes 3, 7), or EphA3-Fc and ephrin-A5 (lanes 4, 8). Complexed proteins were extracted with Protein-A-Sepharose beads and analysed as in FIG. 2. • B. Binding of wild-type and mutant ADAM10ΔMP to EphA3 in cells. EphA3/293 cells were transfected with HA-ADAM10ΔMP or HA-ADAM10ΔMP [EEE-A]. Parental and transfected cells were treated for 10 min with or without pre-clustered ephrin-A5-Fc and lysed. Anti-HA and anti-EphA3 immunoprecipitates, and total cell lysates were analysed by Western blotting with indicated antibodies. • C. Ephrin-A5-Fc cleavage in cells expressing wt and 3A mutant ADAM10. EphA3/293 cells were transfected with full length, wild-type (wt) ADAM10, dominant-negative ADAM10ΔMP, or ADAM10 bearing alanine (3A) or 3 lysine (3K) substitutions of Glu573, 578, 579. Following exposure to clustered (+) or non-clustered ? ephrin-A5 Fc, cleaved ephrin was recovered and analysed by Western Blot as described in FIG. 1c. […]

Test [3] has as its system HEK293 cells. The test can be described thus: Confocal imaging of co-cultured EphA3-diHcRed/ADAM10 and GFP-ephrin expressing cells. It counts as cell-based, human. As to conditions: co-incubation with GFP-ephrin-A5 or GFP-ephrin-A2 cells for 40 min. The protocol:
as §1, with “1c. Parallel anti-HA blots of whole-cell lysates reveal the expression levels of ADAM10 constructs. • D. Model of ADAM protein modules and cleavage mechanism. Left, schematic representation of ADAM proteinases protein domain organization; right, schematic representation of the proposed interactions and positioning of ADAM10, EphA3, and Ephrin-A5 between interacting cells, leading to controlled ephrin-cleavage. • E. Ephrin cleavage from the cell surface is blocked by overexpression of 3A-mutant ADAM10. HEK293 cells were co-transfected with (red-fluorescent) EphA3-diHcRed and either wt ADAM10, ADAM10 bearing alanine (3A) substitutions at Glu573, Glu578, and Glu579, or dominant-negative ADAM10ΔMP.” for “1c.”

For test [4], the system named is HEK293 cells. The test can be described thus: Confocal imaging of pro-EGF shedding in co-cultured EGFR-GFP/ADAM10 and HA-pro-EGF expressing cells. The class given is cell-based, human. The note with it: co-incubation with HA-pro-EGF cells for 15 min. How it is done:
FIG. 5. Cleavage of cell surface pro-EGF by ADAM10 co-expressed with the EGF receptor requires the intact substrate recognition pocket of ADAM10. HEK293 cells transiently expressing EGFR-GFP and either wild type or 3A mutant ADAM10 (as indicated) were co-incubated with HEK293 cells expressing HA-tagged pro-EGF for 15 min. The cells were then washed, fixed and stained with antibodies against ADAM10 (Alexa^546, red) and HA (Alexa^647, cyan). Arrows indicate EGFR/3A Adam10-expressing cells unable to take up EGF from associated HA-pro-EGF expressing cells (stars); arrowheads indicate cells that have taken up EGF that over-express EGFR and wtAdam10 (bottom panels), or just EGFR (with endogenous Adam10), top panels.
ADAM-mediated ligand cleavage from the cell surface, also referred to as ‘shedding’ has been extensively described as mechanism that facilitates the release of the pro-forms of the EGF-receptor ligands (Blobel, 2005, supra). We were interested to see, if the here described substrate recognition site of ADAM10 would function also to recognise pro-EGF and regulate its shedding from the cell surface. We performed the same confocal imaging approach, using HEK293 cells transfected to express GFP-tagged EGF-receptor, which were co-cultured with cells expressing HA-tagged pro-EGF. […]

B1: endogenous ADAM10 (HEK293 and LiBr melanoma cells) (enzyme, human, UniProt O14672 214-748, looked up)
chain: TTSAEKNTCQLYIQTDHLFFKYYGTREAVIAQISSHVKAIDTIYQTTDFSGIRNISFMVKRIRINTTADEKDPTNPFRFPNIGVEKFLELNSEQNHDDYCLAYVFTDRDFDDGVLGLAWVGAPSGSSGGICEKSKLYSDGKKKSLNTGIITVQNYGSHVPPKVSHITFAHEVGHNFGSPHDSGTECTPGESKNLGQKENGNYIMYARATSGDKLNNNKFSLCSIRNISQVLEKKRNNCFVESGQPICGNGMVEQGEECDCGYSDQCKDECCFDANQPEGRKCKLKPGKQCSPSQGPCCTAQCAFKSKSEKCRDDSDCAREGICNGFTALCPASDPKPNFTDCNRHTQVCINGQCAGSICEKYGLEECTCASSDGKDDKELCHVCCMKKMDPSTCASTGSVQWSRHFSGRTITLQPGSPCNDFRGYCDVFMRCRLVDADGPLARLKKAIFSPELYENIAEWIVAHWWAVLLMGIALIMLMAGFIKICSVHTPSSNPKLPPPKPLPGTLKRRRPPQPIQQPQRQRPRESYQMGHMRR
notes: whole, on cells; Both pro and mature forms are marked on the blot; also called pro (unprocessed) and mature (processed) forms
For the molecule B1, the binding result in test [1] was “binds”.

B2: wt-ADAM10: full length, wild-type ADAM10 overexpressed in cells (protein)
chain: TTVAEKNTCQLYIQTDHLFFKYYGTREAVIAQISSHVKAIDTIYQTTDFSGIRNISFMVKRIRINTTADEKDPTNPFRFPNIGVEKFLELNSEQNHDDYCLAYVFTDRDFDDGVLGLAWVGAPSGSSGGICEKSKLYSDGKKKSLNTGIITVQNYGSHVPPKVSHITFAHEVGHNFGSPHDSGTECTPGESKNLGQKENGNYIMYARATSGDKLNNNKFSLCSIRNISQVLEKKRNNCFVESGQPICGNGMVEQGEECDCGYSDQCKDECCYDANQPEGKKCKLKPGKQCSPSQGPCCTAHCAFKSKTEKCRDDSDCAKEGICNGITALCPASDPKPNFTDCNRHTQVCINGQCAGSICEKHGLEECTCASSDGKDDKELCHVCCMKKMEPSTCASTGSVQWNKYFLGRTITLQPGSPCNDFRGYCDVFMRCRLVDADGPLARLKKAIFSPELYENIAEWIVAYWWAVLLMGIALIMLMAGFIKICSVHTPSSNPKLPPPKPLPGTLKRRRPPQPIQQPQRQRPRESYQMGHMRR
modifications: left off: small tags and cut ends
notes: full length, wild-type ADAM10 overexpressed in cells
Regarding B2, the ephrin-A5 cleavage result in test [2] is “did not increase ephrin cleavage above control levels”. Besides, in test [3], the “ephrin cleavage from the cell surface and internalisation” value is on record as “readily noticeable”.

B3: ADAM10 [EEE-A] mutant: full-length ADAM10 with alanine substitutions of Glu573, Glu578 and Glu579 (protein)
chain: B2 chain with E360A, E365A, E366A
modifications: left off: small tags and cut ends
notes: full-length ADAM10 with alanine substitutions of Glu573, Glu578 and Glu579
In the case of B3, the “ephrin cleavage from the cell surface and internalisation” value is “absent” in test [3] and “blocked” in test [3] (listed as 3A-mutant ADAM10). Besides, in test [4], the “EGF shedding and uptake into EGF-receptor expressing cells” value is “dramatically reduced”.
